Source: patent US8357515

Tested on: LAP-MMP IL-4

Sequence of MMP-1, recombinant (P03956 100-469): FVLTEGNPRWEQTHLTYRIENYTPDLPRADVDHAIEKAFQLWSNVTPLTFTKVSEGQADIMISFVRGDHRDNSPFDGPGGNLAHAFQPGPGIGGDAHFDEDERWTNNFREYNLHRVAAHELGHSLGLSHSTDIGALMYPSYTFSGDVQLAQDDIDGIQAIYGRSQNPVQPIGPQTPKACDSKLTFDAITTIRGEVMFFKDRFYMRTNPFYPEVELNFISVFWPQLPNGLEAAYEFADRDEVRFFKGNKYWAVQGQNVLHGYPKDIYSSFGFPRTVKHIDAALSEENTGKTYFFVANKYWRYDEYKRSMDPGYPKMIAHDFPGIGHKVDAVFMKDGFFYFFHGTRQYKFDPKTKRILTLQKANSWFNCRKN

## MMP-1, recombinant
  cleavage of the fusion protein in 293T supernatant after overnight incubation at 37 C, Western blot probed with anti-IL-4 antibody: LAP-MMP IL-4 is only cleaved by MMP-1
